Target: T1, Codanin-1-C (fragment of Codanin-1, amino acids P800-S1227) (human, UniProt Q8IWY9 800-1227)
T1 construct: Codanin-1, amino acids P800-S1227; Plasmid pET28a 6His z-basic TEV CDAN1^P800-S1227; the text speaks only of the hexahistidine tag being cleaved with TEV; that z-basic goes with it follows from the order in the plasmid's name; also called CDAN1^P800-S1227; source: E. coli, purified (Ni2+-NTA agarose, tag cleaved with His-TEV protease); not shown: His6, N-terminal, cleaved; z-basic, N-terminal, …
T1 sequence (looked up): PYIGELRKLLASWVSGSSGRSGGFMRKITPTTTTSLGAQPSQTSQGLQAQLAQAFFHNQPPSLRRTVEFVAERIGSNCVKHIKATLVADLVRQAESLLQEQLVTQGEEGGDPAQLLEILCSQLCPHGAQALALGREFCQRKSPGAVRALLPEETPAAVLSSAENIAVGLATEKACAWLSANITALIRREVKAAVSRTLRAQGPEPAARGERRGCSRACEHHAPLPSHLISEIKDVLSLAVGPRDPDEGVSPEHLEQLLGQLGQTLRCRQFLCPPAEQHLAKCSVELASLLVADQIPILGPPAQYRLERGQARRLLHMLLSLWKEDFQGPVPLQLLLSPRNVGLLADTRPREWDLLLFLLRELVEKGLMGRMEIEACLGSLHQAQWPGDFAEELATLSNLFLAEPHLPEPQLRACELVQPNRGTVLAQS
Experiment: pull-down + SEC; purified His6-C15ORF41 re-bound to Ni2+-NTA agarose, excess of purified Codanin-1-C passed over, eluted with 400 mM imidazole, Superdex 200 16/60 in 50 mM Tris pH 7.5, 500 mM NaCl, 5% glycerol, 0.5 mM TCEP
Conditions: both partners purified

- binding result: binds
B1: His6-C15ORF41 bearing the solubilising mutations V18M, C223S and W237R (natural protein, human, UniProt Q9Y2V0 1-281, looked up)
chain: MILTKAQYDEIAQCLVSMPPTRQSLRKLKQRFPSQSQATLLSIFSQEYQKHIKRTHAKHHTSEAIESYYQRYLNGVVKNGAAPVLLDLANEVDYAPSLMARLILERFLQEHEETPPSKSIINSMLRDPSQIPDGVLANQVYQCIVNDCCYGPLVDCIKHAIGHEHEVLLRDLLLEKNLSFLDEDQLRAKGYDKTPDFILQVPVAVEGHIIHWIESKASFGDESSHHAYLHDQFWSYRNRFGPGLVIYWYGFIQELDCNRERGILLKACFPTNIVTLCHSIA
notes: C15ORF41 (CDIN1) with the extra mutations V18M, C223S and W237R; Plasmid pNIC28 Bsa4 6His Tev C15ORF41^(V18M C223S W237R), a gift from J. Newman (SGC Oxford); preparations held bacterial ArnA as a contaminant; also called C15ORF41^(V18M C223S W237R); source: E. coli, purified (Ni2+-NTA agarose, dialysis); not shown: His6, N-terminal, kept

From article PMC7261414, “A complex comprising C15ORF41 and Codanin-1: the products of two genes mutated in congenital dyserythropoietic anaemia type I (CDA-I)” (Biochemical Journal, 2020)
